In publication PMC1964790, “An ectromelia virus profilin homolog interacts with cellular tropomyosin and viral A-type inclusion protein” (Virology Journal, 2007):

Target: the molecule itself
Test: SDS-PAGE with western blot

B1: His-tagged ectromelia virus strain Moscow gene 141 profilin homolog (ECTV-PH) (natural protein)
chain: MAAEWHKIIEDVSKNNKFEDAAIVDYKTKKNVLAAIPNRTFAKIIPGEVIALITNRNILKPRIGQKFFIVYTNSLMDENTYTMELLTGYAPVSPIVIARTHTALIFLMGKPTTSRREVYRTCRDYATNVRATGN
notes: also called ECTV-Moscow 141; His-ECTV-PH; not shown: His6, N-terminal, kept
stoichiometry N: 2
